B1: E2E8 mAb: E2E8 reformatted as mAb, SEQ ID NO: 493 and 494 (antibody)
heavy: QVQLQESGPSLVKPSQTLSLTCTVSGFSLTDRGVAWVRQAPGKALEWVGTMRSGGTIDYNPALKSRLSITRDTSKSQVFLSLSSVTTEDMAMYYCARGYLSGDRYAWGRGLLVTVSSAKTTAPSVYPLAPVCGDTTGSSVTLGCLVKGYFPEPVTLTWNSGSLSSGVHTFPAVLQSDLYTLSSSVTVTSSTWPSQSITCNVAHPASSTKVDKKIEPRGPTIKPCPPCKCPAPNLLGGPSVFIFPPKIKDVLMISLSPIVTCVVVDVSEDDPDVQISWFVNNVEVHTAQTQTHREDYNSTLRVVSALPIQHQDWMSGKEFKCKVNNKDLPAPIERTISKPKGSVRAPQVYVLPPPEEEMTKKQVTLTCMVTDFMPEDIYVEWTNNGKTELNYKNTEPVLDSDGSYFMYSKLRVEKKNWVERNSYSCSVVHEGLHNHHTTKSFSRTPGK
light: QAVLTQPSSVSKSLGQSVSIACSGSRSDIGYGNYVSWFQQIPGSAPKLLIYDTNTRASGVPDRFSGARSGNTATLTINSLQAEDEADYYCANIDSSRSHLFGSGTRLTVLGGQPKSSPSVTLFPPSSEELETNKATLVCTITDFYPGVVTVDWKVDGTPVTQGMETTQPSKQSNNKYMASSYLTLTARAWERHSSYSCQVTHEGHTVEKSLSRADCS
modifications: E2E8 mAB Heavy Chain; E2E8 mAB Light Chain
B2: E2E8: anti-tau clone, SEQ ID NO: 248 (protein)
scFv: QVQLQESGPSLVKPSQTLSLTCTVSGFSLTDRGVAWVRQAPGKALEWVGTMRSGGTIDYNPALKSRLSITRDTSKSQVFLSLSSVTTEDMAMYYCARGYLSGDRYAWGRGLLVTVSSEGKSSGASGESKVDDQAVLTQPSSVSKSLGQSVSIACSGSRSDIGYGNYVSWFQQIPGSAPKLLIYDTNTRASGVPDRFSGARSGNTATLTINSLQAEDEADYYCANIDSSRSHLFGSGTRLTVLG
modifications: E2E8 amino acid sequence
B3: S1G2 mAb: S1G2 reformatted as mAb, SEQ ID NO: 457 and 458 (antibody)
heavy: QVQLQESGPSLVKPSQTLSLTCTVSGFSLTSNSVGWVRQAPGKAPEWVAGIDTDGEEGYNPALNSRLSITRDTSKSQVSLSLSSVTSEDTAVYYCGRSYRADGLAYGYVQAIDYWGPGLLVTVSSAKTTAPSVYPLAPVCGDTTGSSVTLGCLVKGYFPEPVTLTWNSGSLSSGVHTFPAVLQSDLYTLSSSVTVTSSTWPSQSITCNVAHPASSTKVDKKIEPRGPTIKPCPPCKCPAPNLLGGPSVFIFPPKIKDVLMISLSPIVTCVVVDVSEDDPDVQISWFVNNVEVHTAQTQTHREDYNSTLRVVSALPIQHQDWMSGKEFKCKVNNKDLPAPIERTISKPKGSVRAPQVYVLPPPEEEMTKKQVTLTCMVTDFMPEDIYVEWTNNGKTELNYKNTEPVLDSDGSYFMYSKLRVEKKNWVERNSYSCSVVHEGLHNHHTTKSFSRTPGK
light: QAVVTQPSSVSGSLGQRVSITCSGSFIGISSVGWFQQLPGSGLRTIIVASDGRPSGVPDRFSMSKSGNTATLTISSLQAEDEADYFCGSSDRTPYTGVFGSGTRLTVLGGQPKSSPSVTLFPPSSEELETNKATLVCTITDFYPGVVTVDWKVDGTPVTQGMETTQPSKQSNNKYMASSYLTLTARAWERHSSYSCQVTHEGHTVEKSLSRADCS
modifications: S1G2 mAB Heavy Chain; S1G2 mAB Light Chain
B4: E1E8: anti-tau clone, SEQ ID NO: 250 (protein)
scFv: QVQLQESGPSLVKPSQTLSLTCTVSGFSLTDWGVAWVRQAPGKALEWLGTMRSGGTTDDNPALKSRLSITRDTSKSQVSLSLSSVTTEDMAMYYCARGYLSGVHYAWGRGLLVTVSSEGKSSGASGESKVDDQAVLTQPSSVSGSLGQSVSITCSGSSSNVGDGRYVSWFQQVPGSAPKLLIYDTTSRASGVPDRFSGSRSGNTATLIITSLQAEDEADYYCASIDSGNNLLFGSGTRLTVLG
modifications: E1E8 amino acid sequence
B5: CA2: anti-tau clone, SEQ ID NO: 363 (protein)
scFv: QVQLQESGPSLVKPSQTLSLTCTVSGFSLSSVAVNWVRQAPGKVPEWLGGIISNGGTGYNPALKSRLSITRDTSKSQVSLALTHVTTEDTAVYYCGRGVEWEGSMDYLGPGLLVTVSSEGKSSGSGSETKVDDQSVLTQPSSVSGFLGQRVTITCSGSSSNVGAGSYVGWYQQVPGSGLRILIYGATKRASGLPDRFSGSRSGNTATLTISSLQAEDEADYYCVSYQTDFTLVFGSGTRLTVLG
modifications: CA2 amino acid sequence

Experiments:
aggregated dGAE = aggregated dGAE (Homo sapiens, UniProt P10636); assay: Capture ELISA ranking of mAbs on dGAE aggregates; assay type: binding; settings: 1 μg/ml capture mAb, 800 nM aggregated dGAE
Method: The aggregation cascade of natively unfolded tau into insoluble filaments is a defining pathological feature of AD. Therefore, it is logical to target aggregated tau filaments for both therapeutic and diagnostic purposes. The following experiment was performed to assess the ability of our dGA mAb panel to bind aggregated dGAE using a capture ELISA method. Aggregates were prepared by incubating 100 μM dGAE and 10 mM dTT for 24 h at 37° C. with shaking at 700 RPM. The following day, dGAE aggregates were centrifuged at 17,000×g for 20 min and the supernatant was removed. The remaining pellet was washed with 10 mM phosphate buffer and centrifuged as above. Washing was repeated a further two times to remove any remaining dGAE monomer. The dGAE pellet was resuspended in 100 μl of 10 mM phosphate buffer. (Using a separate capture ELISA based quantification, we have worked out the efficiency of our dGAE aggregation as 80%)
For assessing the mAb panel for aggregate binding, designated rows of a maxisorp plate were coated with 1 μg/ml of each of the capture mAbs (S1D12, S1G2, CA4, NS2A1, CE2, E2E8 and CB7) and blocked as before. Following washing, 800 nM aggregated dGAE was added to the designated wells, double diluted across the plate and incubated for 1 h at RT. The plate was washed again and 1 μg/ml S1G2 scAb was added as detection antibody and incubated for 1 h at RT. To the row where S1G2 mAb was used for capture, […] s1D12 scAb was added as […] instead of S1G2. The assay was developed using HRP labelled HuCK as described previously.

dGAE = dGAE (Homo sapiens, UniProt P10636); assay: Biacore X100 SPR, scAb captured via anti-HuCk, dGAE as analyte; assay type: binding; settings: dissociation rate
Method: Surface plasmon resonance (SPR) is widely regarded as the gold standard for real time measurement of protein-protein interactions such as antibody binding. All SPR experiments were carried out using a Biacore X100 machine and HBS EP+ running buffer (GE Healthcare). A ‘capture’ method was followed for affinity measurements, where an anti-human constant kappa chain (HuCk) antibody was conjugated to the surface of a CM5 sensor chip using an amine coupling kit and scAb molecules were immobilised via their HuCk domain. Amine coupling is a very common approach for immobilising the ligand to the chip surface. The chip surface has a dextran matrix derivatised with carboxyl groups, which after activation with N-hydroxysuccinimide (NHS) and 1-ethyl-3-(3-dimethylaminopropyl) carbodiimide (EDC), form reactive succinimide esters which allows the covalent capturing of the ligand via any available primary amine groups (e.g. Lysine) on the ligand (in this case anti-HuCk antibody). The capture antibody was diluted 1/100 in 10 mM Sodium acetate buffer pH 5.0 and passed over the activated chip surface for a period of at least 420 s. […]
The single cycle kinetics protocol was similar and utilised the same level of scAb capture. […] Binding responses were analysed in Biacore X100 evaluation software and data fitted to a 1:1 binding model to obtain kinetic and affinity characterisation.

hT40 [1] = molecular target: T1, hT40 (Homo sapiens, UniProt P10636); assay: Biacore X100 SPR, scAb captured via anti-HuCk, hT40 as analyte; assay type: binding; settings: scAb
Outline: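 Captured scAb on anti-HuCk CM5 surface (flow cell 1 as reference) in HBS-EP+, capture set for theoretical RMax 100 RU; hT40 injected multi-cycle (0.15625–100 nM) or single-cycle (6.25–100 nM), 120 s association, 420 s dissociation, glycine pH 2.0 regeneration. Kinetics and affinity from 1:1 binding model fit.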

[2] = system: hT40, dGA, dGAE and truncated tau fragments/peptides; assay: Binding ELISA for epitope mapping with truncated tau proteins and biotinylated 13mer peptides; design: species or system human; settings: direct binding ELISA
Method: A series of binding ELISA was performed using various truncated versions of the tau protein and 13mer peptide libraries spanning the entire hT40 molecule for mapping the epitopes of anti-tau scAbs (Full list of protein antigens used is given in Table 14). In general, ELISA plates were coated with 1 μg/ml hT40 or dGA or dGAE or other truncated versions of the protein and in the case of biotinylated peptides, plates were coated with 5 μg/ml Streptavidin followed by 1 μg/ml biotinylated peptide. The plates were blocked with 2% MPBS and scAb samples added at desired starting concentrations and double diluted across the plate. Binding was detected using anti-Human C Kappa HRP conjugated secondary antibody and the resulting immunoreaction was developed and absorbance values measured as described above.
Similarly, dGA binding ‘NS’, ‘S’ and ‘M’ group scAbs were subjected to further antigen binding ELISA using shorter tau proteins and biotinylated 13mer peptides as shown below (FIGS. 10A-F) and (FIGS. 11A-R).
For anti-tau mAb SPR measurements (Biacore X100™) and epitope mapping, the same methodologies described above (see Example 16) were followed.

hT40 [3] = molecular target: T1, hT40; assay: Sandwich ELISA, limits of detection (LoD) of antibody pairs; assay type: binding; settings: S1D12 mAb capture, detection scAb
Method: Full length tau (hT40), at 1 μg/ml starting concentration was added to designated wells and double diluted across rest of the plates and left to incubate at R/T for 1 h. A series of detection scAbs with varying epitope recognition properties were added at 10 μg/ml to designated wells (FIG. 22). For colourimetric detection HRP conjugated anti-HuCk secondary antibody was used and the resulting immunoreaction was developed and absorbance at 450 nm measured as described previously. Cut-off point for a positive binding event was an absorbance value of 0.3 following background subtraction. In order to enhance the assay sensitivity, a chemiluminescent detection method was adopted where 50 μL SuperSignal ELISA Femto Substrate (Thermo Scientific) was added to each well following incubation with anti-HuCK HRP antibody and subsequent washing. The luminescence was read using Clariostar Plus microplate reader. A further modification to this protocol was done where various detection scAbs were directly conjugated with HRP and detected using chemiluminescent protocol as before. The lowest levels of detection achieved using different detection scAbs and a comparison of colourimetric and chemiluminescent methods of detection are shown in Table 28
The assay was conducted using chemiluminescent protocol described above.

T1 sequence (P10636 1-441 isoform P10636-8): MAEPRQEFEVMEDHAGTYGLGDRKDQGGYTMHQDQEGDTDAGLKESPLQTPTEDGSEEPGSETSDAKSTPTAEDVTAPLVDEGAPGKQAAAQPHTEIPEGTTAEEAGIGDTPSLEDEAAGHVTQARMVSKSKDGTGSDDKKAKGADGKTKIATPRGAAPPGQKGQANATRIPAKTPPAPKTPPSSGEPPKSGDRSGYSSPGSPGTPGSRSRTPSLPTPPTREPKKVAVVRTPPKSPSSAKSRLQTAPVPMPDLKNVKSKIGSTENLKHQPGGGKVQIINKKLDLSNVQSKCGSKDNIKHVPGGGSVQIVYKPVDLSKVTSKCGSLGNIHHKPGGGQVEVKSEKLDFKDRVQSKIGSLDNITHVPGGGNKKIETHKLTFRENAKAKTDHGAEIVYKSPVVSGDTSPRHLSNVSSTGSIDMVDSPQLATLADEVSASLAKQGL
Sequence of dGAE (P10636 614-708): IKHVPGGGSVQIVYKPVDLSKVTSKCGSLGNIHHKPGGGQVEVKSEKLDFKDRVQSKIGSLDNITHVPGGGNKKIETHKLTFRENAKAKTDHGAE
Sequence of aggregated dGAE (P10636 614-708): as above

| Molecule | ability to capture aggregated dGAE (aggregated dGAE) | Kd (dGAE) | cross-reactivity of 'E' group scAbs using hT40, dGA and dGAE antigens [2] | also measured |
| --- | --- | --- | --- | --- |
| B1 | most efficient at capturing aggregated dGAE |  |  |  |
| B2 |  | 0.0001915 s⁻¹ | specific dGAE binding | T441 binding (in words) (hT40 [1]; Table 23): No T441 binding; hT40 binding (in words) (hT40 [1]; Table 26 summary): No hT40 binding |
| B3 | most efficient at capturing aggregated dGAE |  |  |  |
| B4 |  | 0.0014 s⁻¹ | specific dGAE binding |  |
| B5 |  |  |  | LoD chemiluminescence detection (hT40 [3]): 0.37 ng/mL; LoD colourimetric detection (hT40 [3]): 6 ng/mL |

From patent publication US12624096B2, “Anti-tau antibodies and methods of use thereof” (GTInvent Limited, priority 2020, dated 2026)
